Results as given in paper PMC5467005, “Functional Characterization of Tea (Camellia sinensis) MYB4a Transcription Factor Using an Integrative Approach”.
Positions count from the first letter of the chain named.

B1: AC-III probe (dsDNA)
DNA 1: CCAGTCCACCTAACTCTACCTAACTCTACCTAACGCTGTTC
DNA 2: GAACAGCGTTAGGTAGAGTTAGGTAGAGTTAGGTGGACTGG
B2: AC-IV probe (dsDNA)
DNA 1: B1 DNA 1 with T11A, T21A, T31A
DNA 2: B1 DNA 2 with A11T, A21T, A31T
B3: AC-I probe (dsDNA)
DNA 1: CGGTACCAGTCCACCTACCGCCACCTACCGCCACCTACCGCTGTTCTCGA
DNA 2: TCGAGAACAGCGGTAGGTGGCGGTAGGTGGCGGTAGGTGGACTGGTACCG
B4: AC-II probe (dsDNA)
DNA 1: B3 DNA 1 with T16A, T26A, T36A
DNA 2: B3 DNA 2 with A15T, A25T, A35T

target: CsMYB4a (Camellia sinensis, UniProt A0A1V0G0T8 1-244); test: EMSA; Not given; EMSA according to Shen et al. 2012; salmon sperm DNA as non-specific competitor; details: protein: recombinant; tags: N-terminal His-tag; blunt
Sequence (A0A1V0G0T8 entry or part of it): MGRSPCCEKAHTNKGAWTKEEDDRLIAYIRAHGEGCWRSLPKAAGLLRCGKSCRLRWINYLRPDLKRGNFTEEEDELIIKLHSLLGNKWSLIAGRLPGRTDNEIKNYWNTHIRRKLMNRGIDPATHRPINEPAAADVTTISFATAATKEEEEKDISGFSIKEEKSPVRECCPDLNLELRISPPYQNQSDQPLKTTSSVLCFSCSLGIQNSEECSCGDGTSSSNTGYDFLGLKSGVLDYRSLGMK

Binding result, binds:
B1
B2
B3
B4
